Results: article PMC3392929 (The Journal of Cell Biology, 2012)

How the values were obtained:
[1] = biological target: Purified β-actin (Cytoskeleton) (UniProt P60709 1-375); assay: SPR
[2] = biological target: Purified β-actin (Cytoskeleton) (UniProt P60709 1-375); assay: SPR; remark: listed apart in the source

Row | Binder | Kd [1] [nM] | Kd [2] [nM]
1 | GST-tagged Myo1c tail domain (domain or fragment) KDNYPQSVPRLFISTRLGADEINPRVLQALGSEPIQYAVPVVKYDRKGYKPRSRQLLLTPNAVVIVEDAKVKQRIEYTNLTGISVSSLSDSLFVLHVQREDNKQKGDVVLQSDHVIETLTKTALSADRVNNININQGSITFAGGPGRDGIIDFTPGSELLITKAKNGHLAVVAPRLNSR | ≤ 2000 | 
2 | GST-tagged full-length Myo1c (natural protein) MALQVELIPTGEIIRVVHPHRPCKLALGSDGVRVTMESALTARDRVGVQDFVLLENFTSEAAFIENLRRRFRENLIYTYIGPVLVSVNPYRDLQIYSRQHMERYRGVSFYEVPPHLFAVADTVYRALRTERRDQAVMISGESGAGKTEATKRLLQFYAETCPAPERGGAVRDRLLQSNPVLEAFGNAKTLRNDNSSRFGKYMDVQFDFKGAPVGGHILSYLLEKSRVVHQNHGERNFHIFYQLLEGGEEETLRRLGLERNPQSYLYLVKGQCAKVSSINDKSDWKVVRKALTVIDFTEDEVEDLLSIVASVLHLGNTHFAADEESNAQVTTENQLKYLTRLLGVEGSTLREALTHRKIIAKGEELLSPLNLEQAAYARDALAKAVYSRTFTWLVAKINRSLASKDAESPSWRSTTVLGLLDIYGFEVFQHNSFEQFCINYCNEKLQQLFIELTLKSEQEEYEAEGIAWEPVQYFNNKIICDLVEEKFKGIISILDEECLRPGEATDLTFLEKLEDTIKQHPHFLTHKLADQRTRKSLDRGEFRLLHYAGEVTYNVTGFLDKNNDLLFRNLKETMCSSENPILGQCFDRSELSDKKRPETVATQFKMSLLELVEILKSKEPAYVRCIKPNDSKQPGRFDEVLIRHQVKYLGLMENLRVRRAGFAYRRKYEAFLQRYKSLCPETWPTWTGRPQDGVTVLVRHLGYKPEEYKMGRTKIFIRFPKTLFATEDALEIRRQSLATKIQATWRGFHCRQKFLRVKRSAICIQSWWRGTLGRRKAAKRKWAAQTIRRLIQGFILRHAPRCPENAFFVDHVRTSFLLNLRRQLPRNILDTSWPTPPPALREASELLRELCRKNMVWKYCRSISPEWKQQLQQKAVASEIFKGKKDNYPQSVPRLFISTRLGADEINPRVLQALGSEPIQYAVPVVKYDRKGYKPRSRQLLLTPNAVVIVEDAKVKQRIEYTNLTGISVSSLSDSLFVLHVQREDNKQKGDVVLQSDHVIETLTKTALSADRVNNININQGSITFAGGPGRDGIIDFTPGSELLITKAKNGHLAVVAPRLNSR |  | ≤ 2000
